Assay results: US20140303084A1 (Biogen, published 2014)
Square brackets hold non-standard residues; d marks the D form. Ends that are not written are not given here. Orn = NCCC[C@H](N)C(=O)O; Dab = NCC[C@H](N)C(=O)O; Dap = NC[C@H](N)C(=O)O

B1: RRAPGKLT-Orn-LASY-Asp-WLFWTGIA-COOH (peptide)
peptide: RRAPGKLT[Orn]LASYDWLFWTGIA-OH
modifications: N-terminus assumed
SMILES: CC[C@H](C)[C@H](NC(=O)CNC(=O)[C@@H](NC(=O)[C@H](Cc1c[nH]c2ccccc12)NC(=O)[C@H](Cc1ccccc1)NC(=O)[C@H](CC(C)C)NC(=O)[C@H](Cc1c[nH]c2ccccc12)NC(=O)[C@H](CC(=O)O)NC(=O)[C@H](Cc1ccc(O)cc1)NC(=O)[C@H](CO)NC(=O)[C@H](C)NC(=O)[C@H](CC(C)C)NC(=O)[C@H](CCCN)NC(=O)[C@@H](NC(=O)[C@H](CC(C)C)NC(=O)[C@H](CCCCN)NC(=O)CNC(=O)[C@@H]1CCCN1C(=O)[C@H](C)NC(=O)[C@H](CCCNC(=N)N)NC(=O)[C@@H](N)CCCNC(=N)N)[C@@H](C)O)[C@@H](C)O)C(=O)N[C@@H](C)C(=O)O
B2: RRAPGKLT-Asp-LASY-Orn-WLFWTGIA-COOH (peptide)
peptide: RRAPGKLTDLASY[Orn]WLFWTGIA-OH
modifications: N-terminus assumed
SMILES: CC[C@H](C)[C@H](NC(=O)CNC(=O)[C@@H](NC(=O)[C@H](Cc1c[nH]c2ccccc12)NC(=O)[C@H](Cc1ccccc1)NC(=O)[C@H](CC(C)C)NC(=O)[C@H](Cc1c[nH]c2ccccc12)NC(=O)[C@H](CCCN)NC(=O)[C@H](Cc1ccc(O)cc1)NC(=O)[C@H](CO)NC(=O)[C@H](C)NC(=O)[C@H](CC(C)C)NC(=O)[C@H](CC(=O)O)NC(=O)[C@@H](NC(=O)[C@H](CC(C)C)NC(=O)[C@H](CCCCN)NC(=O)CNC(=O)[C@@H]1CCCN1C(=O)[C@H](C)NC(=O)[C@H](CCCNC(=N)N)NC(=O)[C@@H](N)CCCNC(=N)N)[C@@H](C)O)[C@@H](C)O)C(=O)N[C@@H](C)C(=O)O
B3: RRAPGKLT-Asp-LASY-Dab-WLFWTGIA-COOH (peptide)
peptide: RRAPGKLTDLASY[Dab]WLFWTGIA-OH
modifications: N-terminus assumed
SMILES: CC[C@H](C)[C@H](NC(=O)CNC(=O)[C@@H](NC(=O)[C@H](Cc1c[nH]c2ccccc12)NC(=O)[C@H](Cc1ccccc1)NC(=O)[C@H](CC(C)C)NC(=O)[C@H](Cc1c[nH]c2ccccc12)NC(=O)[C@H](CCN)NC(=O)[C@H](Cc1ccc(O)cc1)NC(=O)[C@H](CO)NC(=O)[C@H](C)NC(=O)[C@H](CC(C)C)NC(=O)[C@H](CC(=O)O)NC(=O)[C@@H](NC(=O)[C@H](CC(C)C)NC(=O)[C@H](CCCCN)NC(=O)CNC(=O)[C@@H]1CCCN1C(=O)[C@H](C)NC(=O)[C@H](CCCNC(=N)N)NC(=O)[C@@H](N)CCCNC(=N)N)[C@@H](C)O)[C@@H](C)O)C(=O)N[C@@H](C)C(=O)O
B4: RRAPGKLT-Dap-LASY-Asp-WLFWTGIA-COOH (peptide)
peptide: RRAPGKLT[Dap]LASYDWLFWTGIA-OH
modifications: N-terminus assumed
SMILES: CC[C@H](C)[C@H](NC(=O)CNC(=O)[C@@H](NC(=O)[C@H](Cc1c[nH]c2ccccc12)NC(=O)[C@H](Cc1ccccc1)NC(=O)[C@H](CC(C)C)NC(=O)[C@H](Cc1c[nH]c2ccccc12)NC(=O)[C@H](CC(=O)O)NC(=O)[C@H](Cc1ccc(O)cc1)NC(=O)[C@H](CO)NC(=O)[C@H](C)NC(=O)[C@H](CC(C)C)NC(=O)[C@H](CN)NC(=O)[C@@H](NC(=O)[C@H](CC(C)C)NC(=O)[C@H](CCCCN)NC(=O)CNC(=O)[C@@H]1CCCN1C(=O)[C@H](C)NC(=O)[C@H](CCCNC(=N)N)NC(=O)[C@@H](N)CCCNC(=N)N)[C@@H](C)O)[C@@H](C)O)C(=O)N[C@@H](C)C(=O)O
B5: RRAPGKLT-Asp-LASY-Dap-WLFWTGIA-COOH (peptide)
peptide: RRAPGKLTDLASY[Dap]WLFWTGIA-OH
modifications: N-terminus assumed
SMILES: CC[C@H](C)[C@H](NC(=O)CNC(=O)[C@@H](NC(=O)[C@H](Cc1c[nH]c2ccccc12)NC(=O)[C@H](Cc1ccccc1)NC(=O)[C@H](CC(C)C)NC(=O)[C@H](Cc1c[nH]c2ccccc12)NC(=O)[C@H](CN)NC(=O)[C@H](Cc1ccc(O)cc1)NC(=O)[C@H](CO)NC(=O)[C@H](C)NC(=O)[C@H](CC(C)C)NC(=O)[C@H](CC(=O)O)NC(=O)[C@@H](NC(=O)[C@H](CC(C)C)NC(=O)[C@H](CCCCN)NC(=O)CNC(=O)[C@@H]1CCCN1C(=O)[C@H](C)NC(=O)[C@H](CCCNC(=N)N)NC(=O)[C@@H](N)CCCNC(=N)N)[C@@H](C)O)[C@@H](C)O)C(=O)N[C@@H](C)C(=O)O
B6: RRAPGKLT-Orn-LASY-Asp-WLFWTGIA-CONH2 (peptide)
peptide: RRAPGKLT[Orn]LASYDWLFWTGIA-NH2
modifications: N-terminus assumed
SMILES: CC[C@H](C)[C@H](NC(=O)CNC(=O)[C@@H](NC(=O)[C@H](Cc1c[nH]c2ccccc12)NC(=O)[C@H](Cc1ccccc1)NC(=O)[C@H](CC(C)C)NC(=O)[C@H](Cc1c[nH]c2ccccc12)NC(=O)[C@H](CC(=O)O)NC(=O)[C@H](Cc1ccc(O)cc1)NC(=O)[C@H](CO)NC(=O)[C@H](C)NC(=O)[C@H](CC(C)C)NC(=O)[C@H](CCCN)NC(=O)[C@@H](NC(=O)[C@H](CC(C)C)NC(=O)[C@H](CCCCN)NC(=O)CNC(=O)[C@@H]1CCCN1C(=O)[C@H](C)NC(=O)[C@H](CCCNC(=N)N)NC(=O)[C@@H](N)CCCNC(=N)N)[C@@H](C)O)[C@@H](C)O)C(=O)N[C@@H](C)C(N)=O
B7: RRAPGKLT-Asp-LASY-Orn-WLFWTGIA-CONH2 (peptide)
peptide: RRAPGKLTDLASY[Orn]WLFWTGIA-NH2
modifications: N-terminus assumed
SMILES: CC[C@H](C)[C@H](NC(=O)CNC(=O)[C@@H](NC(=O)[C@H](Cc1c[nH]c2ccccc12)NC(=O)[C@H](Cc1ccccc1)NC(=O)[C@H](CC(C)C)NC(=O)[C@H](Cc1c[nH]c2ccccc12)NC(=O)[C@H](CCCN)NC(=O)[C@H](Cc1ccc(O)cc1)NC(=O)[C@H](CO)NC(=O)[C@H](C)NC(=O)[C@H](CC(C)C)NC(=O)[C@H](CC(=O)O)NC(=O)[C@@H](NC(=O)[C@H](CC(C)C)NC(=O)[C@H](CCCCN)NC(=O)CNC(=O)[C@@H]1CCCN1C(=O)[C@H](C)NC(=O)[C@H](CCCNC(=N)N)NC(=O)[C@@H](N)CCCNC(=N)N)[C@@H](C)O)[C@@H](C)O)C(=O)N[C@@H](C)C(N)=O
B8: RRAPGKLT-Dab-LASY-Asp-WLFWTGIA-CONH2 (peptide)
peptide: RRAPGKLT[Dab]LASYDWLFWTGIA-NH2
modifications: N-terminus assumed
SMILES: CC[C@H](C)[C@H](NC(=O)CNC(=O)[C@@H](NC(=O)[C@H](Cc1c[nH]c2ccccc12)NC(=O)[C@H](Cc1ccccc1)NC(=O)[C@H](CC(C)C)NC(=O)[C@H](Cc1c[nH]c2ccccc12)NC(=O)[C@H](CC(=O)O)NC(=O)[C@H](Cc1ccc(O)cc1)NC(=O)[C@H](CO)NC(=O)[C@H](C)NC(=O)[C@H](CC(C)C)NC(=O)[C@H](CCN)NC(=O)[C@@H](NC(=O)[C@H](CC(C)C)NC(=O)[C@H](CCCCN)NC(=O)CNC(=O)[C@@H]1CCCN1C(=O)[C@H](C)NC(=O)[C@H](CCCNC(=N)N)NC(=O)[C@@H](N)CCCNC(=N)N)[C@@H](C)O)[C@@H](C)O)C(=O)N[C@@H](C)C(N)=O
B9: RRAPGKLT-Dap-LASY-Asp-WLFWTGIA-CONH2 (peptide)
peptide: RRAPGKLT[Dap]LASYDWLFWTGIA-NH2
modifications: N-terminus assumed
SMILES: CC[C@H](C)[C@H](NC(=O)CNC(=O)[C@@H](NC(=O)[C@H](Cc1c[nH]c2ccccc12)NC(=O)[C@H](Cc1ccccc1)NC(=O)[C@H](CC(C)C)NC(=O)[C@H](Cc1c[nH]c2ccccc12)NC(=O)[C@H](CC(=O)O)NC(=O)[C@H](Cc1ccc(O)cc1)NC(=O)[C@H](CO)NC(=O)[C@H](C)NC(=O)[C@H](CC(C)C)NC(=O)[C@H](CN)NC(=O)[C@@H](NC(=O)[C@H](CC(C)C)NC(=O)[C@H](CCCCN)NC(=O)CNC(=O)[C@@H]1CCCN1C(=O)[C@H](C)NC(=O)[C@H](CCCNC(=N)N)NC(=O)[C@@H](N)CCCNC(=N)N)[C@@H](C)O)[C@@H](C)O)C(=O)N[C@@H](C)C(N)=O
B10: RRAPGKLT-Asp-LASY-Dap-WLFWTGIA-CONH2 (peptide)
peptide: RRAPGKLTDLASY[Dap]WLFWTGIA-NH2
modifications: N-terminus assumed
SMILES: CC[C@H](C)[C@H](NC(=O)CNC(=O)[C@@H](NC(=O)[C@H](Cc1c[nH]c2ccccc12)NC(=O)[C@H](Cc1ccccc1)NC(=O)[C@H](CC(C)C)NC(=O)[C@H](Cc1c[nH]c2ccccc12)NC(=O)[C@H](CN)NC(=O)[C@H](Cc1ccc(O)cc1)NC(=O)[C@H](CO)NC(=O)[C@H](C)NC(=O)[C@H](CC(C)C)NC(=O)[C@H](CC(=O)O)NC(=O)[C@@H](NC(=O)[C@H](CC(C)C)NC(=O)[C@H](CCCCN)NC(=O)CNC(=O)[C@@H]1CCCN1C(=O)[C@H](C)NC(=O)[C@H](CCCNC(=N)N)NC(=O)[C@@H](N)CCCNC(=N)N)[C@@H](C)O)[C@@H](C)O)C(=O)N[C@@H](C)C(N)=O

molecular target: human Factor IXa (human, UniProt P00740 47-191; P00740 227-461); assay: cell-based or functional assay

RRAPGKLCALASYACLFWTGIA-NH2 (cysteine pairing not given here) [RRAPGKLCALASYACLFWTGIA-CONH2] and RRAPGKCTALASYAWCFWTGIA-NH2 (cysteine pairing not given here) [RRAPGKCTALASYAWCFWTGIA-CONH2] cannot be ordered by “EC50 [µM], FXa generation assay” value: > 10 µM for the first, > 1 µM for the second.

RRAPGCLTALASYAWLCWTGIA-NH2 (cysteine pairing not given here) [RRAPGCLTALASYAWLCWTGIA-CONH2] and RRAPGKLTKLASYDWLFWTGIA-OH [RRAPGKLT-Lys-LASY-Asp-WLFWTGIA-COOH] cannot be ordered by “EC50 [µM], FXa generation assay” value: > 1 µM for the first, > 10 µM for the second.

First: RRAPGKLTDLASYKWLFWTGIA-OH [RRAPGKLT-Asp-LASY-Lys-WLFWTGIA-COOH]
Second: B1
The “EC50 [µM], FXa generation assay” value of the first is lower: < 0.5 µM for the first, > 1 µM for the second.

First: B2
Second: B3
The “EC50 [µM], FXa generation assay” value of the first is lower: < 0.5 µM for the first, > 10 µM for the second.

B4 and B5 cannot be ordered by “EC50 [µM], FXa generation assay” value: > 10 µM for the first, > 1 µM for the second.

Going from RRAPGKLTKLASYEWLFWTGIA-OH [RRAPGKLT-Lys-LASY-Glu-WLFWTGIA-COOH] to RRAPGKLTKLASYDWLFWTGIA-NH2 [RRAPGKLT-Lys-LASY-Asp-WLFWTGIA-CONH2], the “EC50 [µM], FXa generation assay” value rises from < 0.5 µM to > 1 µM.

First: RRAPGKLTDLASYKWLFWTGIA-NH2 [RRAPGKLT-Asp-LASY-Lys-WLFWTGIA-CONH2]
Second: B6
The “EC50 [µM], FXa generation assay” value of the first is lower: < 0.5 µM for the first, > 10 µM for the second.

First: B7
Second: B8
The “EC50 [µM], FXa generation assay” value of the first is lower: < 0.5 µM for the first, > 1 µM for the second.

B9 and B10 cannot be ordered by “EC50 [µM], FXa generation assay” value: > 10 µM for the first, > 1 µM for the second.

For RRAPGKLTKLASYEWLFWTGIA-NH2 [RRAPGKLT-Lys-LASY-Glu-WLFWTGIA-CONH2], the “EC50 [µM], FXa generation assay” value was > 1 µM.
